pKd: −log10 of the molar value.
Biological target: recombinant Fc-tagged VEGFR2 extracellular domain (VEGFR2-ECD) (UniProt P35968)
Assay: SPR; Biacore 8K, single-cycle mode, 25°C, HBS-P+ buffer; Fc-tagged VEGFR2-ECD (180 nM) captured on a protein A sensor chip at about 1,400 to 1,700 RU; analytes at 1.25, 2.5, 5, 10 and 20 nM, 30 uL/min; KD from the first on and off rates of the bivalent model

Chain of UniProt P35968 (P35968 20-764): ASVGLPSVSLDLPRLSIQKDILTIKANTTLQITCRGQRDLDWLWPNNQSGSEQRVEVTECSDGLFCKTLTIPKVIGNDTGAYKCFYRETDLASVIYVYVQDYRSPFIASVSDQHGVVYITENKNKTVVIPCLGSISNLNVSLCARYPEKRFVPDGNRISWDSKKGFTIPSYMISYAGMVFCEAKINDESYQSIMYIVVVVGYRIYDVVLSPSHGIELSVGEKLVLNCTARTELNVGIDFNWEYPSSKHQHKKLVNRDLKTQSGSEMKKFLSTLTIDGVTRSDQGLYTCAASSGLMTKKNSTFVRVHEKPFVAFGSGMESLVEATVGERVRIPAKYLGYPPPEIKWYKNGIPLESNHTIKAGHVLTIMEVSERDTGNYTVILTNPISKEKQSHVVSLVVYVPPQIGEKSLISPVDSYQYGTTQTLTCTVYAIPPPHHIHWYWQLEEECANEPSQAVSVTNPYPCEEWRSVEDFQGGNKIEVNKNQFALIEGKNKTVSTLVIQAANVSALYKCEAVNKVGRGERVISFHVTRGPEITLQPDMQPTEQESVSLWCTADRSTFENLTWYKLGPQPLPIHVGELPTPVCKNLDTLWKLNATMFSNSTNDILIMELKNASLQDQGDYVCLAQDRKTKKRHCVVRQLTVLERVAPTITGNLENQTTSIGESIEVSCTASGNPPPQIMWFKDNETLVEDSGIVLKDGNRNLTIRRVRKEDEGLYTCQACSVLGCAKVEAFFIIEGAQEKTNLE

B. henselae-derived BafA passenger domain (BafABhe) (domain or fragment)
pKd: 8.68

recombinant human VEGF-A165 (ligand)
pKd: 8.16

B. bacilliformis-derived BafA passenger domain (BafABba) (domain or fragment)
pKd: 7.04
